Measurements reported in patent US20060040319A1, “Multiple sensor-containing active modified polypeptides, preparation and uses thereof” (priority 2000, published 2006).
Where no end group is shown, it is not given here.

Columns and labels:
[1] = target: T1, GST fusion of mouse c-Abl containing only the SH2 and kinase domains (Mus musculus, UniProt P00520); assay: Kinase assay with truncated c-Abl containing only the SH2 and kinase domains; type: biochemical; settings: truncated c-Abl, after 60 min
T1 construct: a GST fusion of mouse c-Abl containing only the SH2 and kinase domains; made in house; host or cells: E. coli BL21
T1 sequence (P00520 127-493): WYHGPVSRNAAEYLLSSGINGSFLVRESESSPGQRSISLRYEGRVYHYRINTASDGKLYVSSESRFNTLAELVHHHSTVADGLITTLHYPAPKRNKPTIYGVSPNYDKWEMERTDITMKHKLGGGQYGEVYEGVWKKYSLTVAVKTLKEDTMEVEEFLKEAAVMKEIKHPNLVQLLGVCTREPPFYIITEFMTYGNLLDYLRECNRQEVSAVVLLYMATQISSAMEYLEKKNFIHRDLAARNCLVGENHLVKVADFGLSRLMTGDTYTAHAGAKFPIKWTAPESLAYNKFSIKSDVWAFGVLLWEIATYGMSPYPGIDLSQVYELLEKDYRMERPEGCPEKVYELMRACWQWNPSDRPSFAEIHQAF
Method: (§1) Purified Rh-(Crk-II)-Fl prepared as described in Example I was treated with either full length recombinant (Baculovirus/SF9) mouse c-Abl or a GST fusion of mouse c-Abl containing only the SH2 and kinase domains (expressed in E. coli BL21 essentially as described (19)). In a typical experiment, the appropriate c-Abl construct was incubated in reaction buffer (2 mM DTT, 0.2 mg/ml BSA, 10 mM Mg^2+, 50 mM Tris, pH 7.4, either with or without ATP (500 μM)) for 5 min at 30° C. before addition of Rh-(Crk-II)-Fl (final concentration=0.25 μM). In order to ensure that equal amounts of active c-Abl enzyme were added to each reaction, preliminary titration experiments were carried out using an optimized peptide substrate for c-Abl (EAIYAAPFAKKK (SEQ ID No:2) (20)). […] In all cases, aliquots of the reaction mixtures were removed at ˜1 min and 60 min, quenched with EDTA (final conc.=40 mM), and then analyzed by native-PAGE and/or Western blotting and fluorescence spectroscopy. […]
(§2) Fluorescence Spectroscopy. […] Excitation was at 490 nm with a 2.5 nm slit and the fluorescence emission was monitored at 520 nm and 580 nm through a 4 nm slit. […] Rh-(Crk-II)-Fl was treated with full length recombinant c-Abl and aliquots of the reaction mixture were analyzed by fluorescence spectroscopy and western blotting at ˜1 min and 60 min time-points. […]

[2] = target: T2, N-SH3 domain of Crk-II (binding to c-Abl) (Mus musculus, UniProt Q64010); assay: Peptide inhibition study: Crk-II phosphorylation by full length c-Abl in presence of N-SH3 ligand (Rh-(Crk-II)-Fl biosensor); type: biochemical; settings: fluorescence-based assay
T2 construct: extra Gly plus fluorescein peptide (Cys-Fl-PS, remainder after PreScission site) (C); made in house; host or cells: E. coli BL21 (Crk-II-intein fusion), then ligation of synthetic peptides
T2 sequence (Q64010 with tags, fused parts or gaps): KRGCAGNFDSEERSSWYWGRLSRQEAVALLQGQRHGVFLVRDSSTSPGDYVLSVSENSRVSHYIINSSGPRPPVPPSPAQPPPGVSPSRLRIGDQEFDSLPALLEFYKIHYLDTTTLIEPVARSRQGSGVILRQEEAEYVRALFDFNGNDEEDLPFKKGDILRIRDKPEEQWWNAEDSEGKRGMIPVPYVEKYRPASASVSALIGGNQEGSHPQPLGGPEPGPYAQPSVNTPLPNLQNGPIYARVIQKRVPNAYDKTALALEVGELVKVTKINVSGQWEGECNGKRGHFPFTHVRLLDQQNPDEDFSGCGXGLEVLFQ
Method: as §1, §2

phosphorylation of optimized peptide substrate [1] | effect on Crk-II phosphorylation by c-Abl [2] | Substance
completely phosphorylated | – | EAIYAAPFAKKK (Peptide Substrate) [optimized peptide substrate for c-Abl, reference compound]
– | partially inhibit Crk-II phosphorylation | PPPALPPKRRR-NH2 [high affinity N-SH3 ligand]
